Data set [1] has as its target Bovine serum albumin (BSA) (Bos taurus, UniProt P02769 P02769:25-607). In words: impedance; 20 ug/ml BSA in PBS, 30 min, Ret unchanged. The note with it: tags: Sigma-Aldrich; label: 5'-amine, amide-coupled to MPA on gold electrode. How it is done: (§1) A conventional three-electrode cell was used for performing electrochemical impedance spectroscopy (EIS). Ag/AgCl and a platinum (Pt) plate were respectively used as a reference electrode and an opposite electrode. In every modification and detection stage, an operating electrode was detected by EIS in a 2 mM Fe(CN)6^{3-/4-}(1:1)/PBS solution. An amplitude-sine wave of about 10 mV was applied in a frequency range of about 0.1 Hz to 100 kHz.
EIS data was measured to investigate specificities of the aptamer with respect to other proteins existing blood, such as BSA and IgG. The EIS data of the aptamer-attached electrode was measured (block line), and then the aptamer-attached electrode was immersed in 20 μg/ml concentrations of BSA solution and IgG solution each for 30 minutes. […] Then, when the aptamer-attached electrode was immersed in a solution in which 30 ng/ml HER2 was added to a 20 μg/ml BSA/IgG solution for 30 minutes, the Rₑₜ value increased.

The next data set addresses HER2 (ErbB2) (UniProt P04626 P04626:23-652). Description: electrochemical impedance on Au/MPA/aptamer electrode; dRet linear 5-50 ng/ml (y=18.97x+160.2, R2=0.99882), saturates 50-500 ng/ml; PBS, 30 min. The note with it: tags: R&D Systems; label: 5'-amine, amide-coupled to MPA on gold electrode. Here is the method:
as §1
After immobilization of the NH₂-ssDNA, the modified gold electrode was incubated in a series of HER2/PBS solutions of different concentrations for 30 minutes each, and then washed with DI water. A series of HER2/PBS solutions of 5 ng/ml to 500 ng/ml concentrations were fabricated in order to confirm a range of soluble concentration.
After the aptamer (NH₂-ssDNA) was immobilized, the modified gold electrode was incubated in a series of HER2/PBS solutions of a range 5.0 to 50 ngmL⁻¹. The modified gold electrode was detected by EIS after each incubation. The difference of electron-transfer resistance ΔRₑₜ between the aptamer-modified gold electrode and the HER2-incubated gold electrode was obtained from a signal formed by a reaction between the immobilized aptamer and the HER2.

The source of these data is patent US20130270124, “BIOSENSOR ELECTRODE FOR HER2 DETECTION, A METHOD FOR PRODUCING IT, A METHOD FOR REGENERATING IT” (RESEARCH & BUSINESS FOUNDATION SUNGKYUNKWAN UNIVERSITY, published 2013).

Sequence of Bovine serum albumin (BSA) (P02769 25-607, one chain of several): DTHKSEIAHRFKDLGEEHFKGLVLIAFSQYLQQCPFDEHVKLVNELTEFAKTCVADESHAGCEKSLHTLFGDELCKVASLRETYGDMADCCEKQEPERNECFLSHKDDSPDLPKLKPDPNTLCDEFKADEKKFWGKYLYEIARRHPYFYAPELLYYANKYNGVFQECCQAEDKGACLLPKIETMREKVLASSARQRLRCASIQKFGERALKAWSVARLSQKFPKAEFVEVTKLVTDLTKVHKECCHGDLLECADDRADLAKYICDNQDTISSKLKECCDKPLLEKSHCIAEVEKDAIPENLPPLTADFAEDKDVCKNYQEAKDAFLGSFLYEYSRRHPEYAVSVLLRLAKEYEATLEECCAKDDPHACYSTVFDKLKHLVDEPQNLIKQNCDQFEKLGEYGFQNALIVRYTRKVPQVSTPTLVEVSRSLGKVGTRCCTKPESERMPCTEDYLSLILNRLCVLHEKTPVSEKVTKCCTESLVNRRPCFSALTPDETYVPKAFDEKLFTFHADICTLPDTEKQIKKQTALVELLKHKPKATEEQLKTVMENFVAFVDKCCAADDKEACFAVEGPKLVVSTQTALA

B1: HER2 NH2-aptamer (ssDNA)
DNA: CTTCTGCCCGCCTCCTTCCTGGGGCCTGGATACGGATTGGTAAGGATTAGTAGGGGGCATAGCTGGAGACGAGATAGGCGGACACT
modifications: 5'-amino modifier C6
With B1, the binding result in data set [1] was “no binding”; with HER2 (ErbB2), “binds”.
